# Target: the molecule itself
# Experiment: native MS
row,Protein,stoichiometry N
1,"rabbit muscle pyruvate kinase (enzyme, acetylation of the N-terminal serine (after removal of the initiator methionine)) not shown",4
2,"yeast alcohol dehydrogenase (enzyme, UniProt P00330 1-348, looked up) MSIPETQKGVIFYESHGKLEYKDIPVPKPKANELLINVKYSGVCHTDLHAWHGDWPLPVKLPLVGGHEGAGVVVGMGENVKGWKIGDYAGIKWLNGSCMACEYCELGNESNCPHADLSGYTHDGSFQQYATADAVQAAHIPQGTDLAQVAPILCAGITVYKALKSANLMAGHWVAISGAAGGLGSLAVQYAKAMGYRVLGIDGGEGKEELFRSIGGEVFIDFTKEKDIVGAVLKATDGGAHGVINVSVSEAAIEASTRYVRANGTTVLVGMPAGAKCCSDVFNQVVKSISIVGSYVGNRADTREALDFFARGLVKSPIKVVGLSTLPEIYEKMEKGQIVGRYVVDTSK",4
